Data taken from the supplement of paper PMC9170038.

Tests used:
MS2 coat protein [1] = assay: apparent KD of MS2 coat protein; designed switch direction (-1 OFF switch, 1 ON switch): 1; higher = weaker reporter binding; conditions: Eterna round: R98
Procedure: (§1)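 RNA-MaP: designed FMN/MS2 RNA switches (84 nt design region) are transcribed on-chip within common flanks and titrated with SNAP-549-labelled MS2 coat protein (about 1-3000 nM) in 100 mM Tris pH 7.5, 80 mM KCl, 4 mM MgCl2, without or with 200 uM FMN. Median apparent KD per design; activation ratio = KD,OFF / KD,ON.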

MS2 coat protein [2] = assay: apparent KD of MS2 coat protein; designed switch direction (-1 OFF switch, 1 ON switch): -1; higher = weaker reporter binding; conditions: Eterna round: R98
Procedure: as §1

Sequence	apparent KD of MS2 coat protein (MS2 coat protein [1]; input ligand: FMN 200 uM) [nM]	apparent KD of MS2 coat protein (MS2 coat protein [1]; input ligand: none) [nM]	apparent KD of MS2 coat protein (MS2 coat protein [2]; input ligand: FMN 200 uM) [nM]	apparent KD of MS2 coat protein (MS2 coat protein [2]; input ligand: none) [nM]
CAACAAUGGUGAGGAUAUGCAAAGGAUCACCUUGUAGAAGGCAUCAGGUAGAAGGUGCAGAGGAUCACCCUGUAAGGAUAUAUC [pwkr2 ssNG1 DX.21]	69.9	176	–	–
UCGAAGAAGCAAGGAUAUCAAUAUUAGAAAAGAUAAACAUGAGGAUCACCCAUGUAAAUAUGGAGUGAGAAGGUGCAAUAAUUU [JR_SSNG2_Sub098]	212	557	–	–
GGAGACCUCACAGGAUAUGCUGGACUUUGUCCAGCAGAAGGGUGUUUAACAUGAGGAUCACCCAUGUAGGUCUCCAAAUUUAAU [Denovo 60]	46	707	–	–
UCACUCACGUUAGGAUAUGGAUCGGAAAACGAUCCAGAAGGAACCUGCAAACACGAGGAUCACCCGUGUUCCAAUAACGAGUGA [SameSame 5 - Jieux - Same State NG 1]	24.7	20.3	–	–
GCCAUCGUAUGAGGAUAUGGCACCGUUUCGGUGCCAGAAGGCAUGUCUUUUGACAUGAGGAUCACCCAUGUAGUUAAGAUGGCA [Pyrimidine booster 4]	147	637	–	–
AAAACAUGAGGAUCACCCAUGUAAUGAUCGGUUAAUAGAAGUGAGGAUAUGCUUAAAAUAAGGUAGCAGAAGGCACUGGGUACA [JR_SSNG3_Sub041]	31.3	28.1	–	–
GUAGCAUACCGAGGAUAUUCAUACUGGAAACAGACAUGAGGAUCACCCAUGUGGCGAAAGCCUUGGGAGAAGGCGGAAUGCUAC [EliMod 9 - Jieux - Same State NG 2]	42.4	545	–	–
CUAGCAUACCGAGGAUAUUCAUAUAAUAAAUAAACAUGAGGAUCACCCAUGUGGCGAAAGCCUAGGGAGAAGGCGGAAUGCUAU [salish99_SSNG2_r2_111]	23.8	210	–	–
ACCGGCACUUACAUGAGGAUCACCCAUGUGUGCAAUCGGACACAGGAUAUCCAUGGUAAGUAUCGGGAGAAGGGUGGAAAGAAA [Reustion]	258	142	–	–
AAAACAUGAGGAUCACCCAUGUAAAGAUCGGUUAAUAAAAGUGAGGAUAUACAAAAUUUUAUAUAGUAGAAGGCACUGGGUACA [JR_SSNG3_Sub002]	29.7	28.3	–	–
CGCUGUCGCGCAGGAUAUGCAUUGGAUUACAAUGCAGAAGGGCGAUUACAUGAGGAUCACCCAUGUGUAGACAGUGAAGAAGAG [SameState #31 NG1]	28.4	253	–	–
AUCAAUCACAUAGGAUAUAGAAUAUUAUAUUUUUACAUGAGGAUCACCCAUGUUUUAUUGGGAUUCUAGAAGGAUGAGUAAUAA [JR_SSNG2_Sub055Nu]	96.9	147	–	–
GUAGCAUACCGAGGAUAUUCAUACCAUAAAUGGACAUGAGGAUCACCCAUGUGGCGAAAGCCUUGGGAGAAGGCGGAAUGCUAC [EliMod 3 - Jieux - Same State NG 2]	25.2	673	–	–
UUUGGGAGCACAGGAUAUGGCACCUCGACGGCGCCAGAAGGGUGAUUCUGUUGGUGGCCACAUGAGGAUCACCCAUGUGCCUCC [Inerinusce]	44.7	76	–	–
GGUCUGAUAUGAGGAUAUGCUCAGGAUAACUGAGCAGAAGGCAUGUGAAAACAUGAGGAUCACCCAUGUAUGAUCUACAGACCA [Same State NG1 - WT Aptamer 4D]	22.7	55.6	–	–
AAAAUAAAGGCAGGAUAUACAUGAAUAAAUAAAAUAAAAUAAAAUAAAACAUGAGGAUCACCCAUGUAGAAGGGCCAAAAUAAA [LRO021_Exclusion NG 2]	–	–	178	71.5
AUGACAGGCAGAGCGCAACGGCGAACAUGAGGAUCACCCAUGUAGGAUAUGCUACACAAAGUGUAGCAGAAGGACAUGCGACGC [Ex NG2 #85]	–	–	117	25.7
GCCGUAAUAGCAGGAUAUGCUCCGGUUGCUCAUACAUGAGGAUCACCCAUGUCACGUGCGGUGGUGCAGAAGGGUUGAAGCGAU [Ausaso]	122	465	–	–
GGUCCAUCAUGAGGAUAUGGCACCUUAUUUGUGCCAGAAGGCAUGUCAAUAGACAUGAGGAUCACCCAUGUAAUAAAUUGGACC [EliMod 3 - Jieux - Same State NG 1]	54.1	642	–	–
ACAUGGAAGCGAGGAUAUGCGGCGGAAACGAACGCAGAAGGCGAAAAAAAAACUCGCAAAAACAUGAGGAUCACCCAUGUAAAA [AK-NGROCr2-ExNG1-4]	–	–	34.8	28.5
